The target in this assay is FUS-eGFP (C-terminally eGFP-tagged Fused in Sarcoma) (UniProt P35637). As to the kind of experiment: FRET or BRET. (In general: Bioluminescence resonance energy transfer reports proximity on the nanometre scale.)

For “FUS-eGFP (C-terminally eGFP-tagged Fused in Sarcoma) (from UniProt P35637 1-526) (natural protein)”, the apparent homoFRET efficiency (E Homo) turned out to be 0.7 and the steady-state fluorescence anisotropy in droplets (loss by homoFRET) is 0.08.

The values are drawn from paper PMC11511825.
